The values that follow come from patent US20230087785A1, “Leucine-Rich Repeat Kinase 2 Allosteric Modulators” (VIB VZW, priority 2020, published 2023).

Series [1] deals with T1, LRRK2 RocCOR domain construct (human, UniProt Q5S007 1334-1840).
T1 construct: A second construct (residues 1293-1840, N-terminal His6-MBP) was used in certain screening experiments; not shown: N-terminal Twin-Strep-tag; C-terminal His10-tag
T1 sequence: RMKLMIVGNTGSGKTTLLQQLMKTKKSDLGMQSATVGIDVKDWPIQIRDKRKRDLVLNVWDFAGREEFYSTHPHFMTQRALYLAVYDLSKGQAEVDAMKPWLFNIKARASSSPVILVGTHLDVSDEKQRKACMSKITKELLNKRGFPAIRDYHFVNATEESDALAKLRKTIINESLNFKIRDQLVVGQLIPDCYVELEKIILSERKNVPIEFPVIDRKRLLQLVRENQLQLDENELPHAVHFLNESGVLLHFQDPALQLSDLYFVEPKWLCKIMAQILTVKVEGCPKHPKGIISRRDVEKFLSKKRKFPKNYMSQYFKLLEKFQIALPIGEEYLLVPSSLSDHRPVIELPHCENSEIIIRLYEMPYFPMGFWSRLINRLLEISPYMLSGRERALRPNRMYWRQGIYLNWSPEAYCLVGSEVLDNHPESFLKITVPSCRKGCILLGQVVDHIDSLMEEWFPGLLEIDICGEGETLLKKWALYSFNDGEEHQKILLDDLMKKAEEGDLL
Nature of the series: ELISA, antigen coated on the plate, purified Nb detected via its EPEA tag. The text has this: (§1) We recombinantly expressed and purified the RocCOR, Roc, COR-B and kinase-WD40 (K-WD40) domain constructs of LRRK2 (FIG. 7). Subsequently, we performed an ELISA in which all these domain constructs were coated in parallel next to each other in the same ELISA plate, and where we subsequently detected binding of the 42 purified Nbs. […] To enrich in Nbs directed against the Roc domain we specifically included a selection step with either Roc-GTPγS or Roc-GDP.

The target in series [2] is T2, LRRK2 Roc domain construct (human, UniProt Q5S007 1329-1520).
T2 construct: not shown: N-terminal His6-tag of pET-28a
T2 sequence: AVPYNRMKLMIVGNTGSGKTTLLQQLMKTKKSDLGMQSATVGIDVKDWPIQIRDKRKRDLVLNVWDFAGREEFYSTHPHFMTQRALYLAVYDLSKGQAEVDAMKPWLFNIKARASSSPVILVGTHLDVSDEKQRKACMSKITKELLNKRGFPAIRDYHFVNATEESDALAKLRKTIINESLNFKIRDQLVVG
Described as above.
Description: as §1

Series [3] deals with T3, LRRK2 COR-B construct (C-terminal part of the COR domain), His6-MBP tagged (human, UniProt Q5S007 1672-1840).
T3 construct: also called (MBP-)COR-B; not shown: N-terminal His6-MBP-tag of pDEST-566
The description is as above.
Description: as §1

In another series the target is T4, LRRK2(G2019S) (Homo sapiens, UniProt Q5S007, G2019S/M2397T/R50H).
T4 construct: SF tag (FLAG + Twin-Strep); expressed in transfected cells; host or cells: HEK 293T
Nature of the series: In cellulo phospho-Rab / LRRK2 autophosphorylation assay in HEK293T cells. Details: key to Functional Group (see FIG. 2d): Group 1: group 1: Nbs that inhibit both LRRK2 autophosphorylation and Rab10 phosphorylation in cells; Group 2: group 2: Nbs that inhibit only Rab10 phosphorylation; Group 3: group 3: Nbs that activate LRRK2 kinase activity; Group 4: group 4: Nbs that have no consistent/clear effect on LRRK2 kinase activity. The series is classed as cell-based. The procedure: (FIGS. 2A-2C) LRRK2(G2019S) and its effector Rab29 were overexpressed together with GFP-fused Nbs (“Fluobody”) in HEK293T cells. A negative control, where no Nb is overexpressed (“No Nb”) is also included. […] In rows labeled “pLRRK2”, LRRK2 pS1292 levels are determined by Western Blot using a site-specific anti-pLRRK2(pS1292) antibody (Abcam, ab203181) (shown at different times of development). In the rows labeled “pRAB10”, endogenous pT72-Rab10 levels are determined by Western Blot using the MJFF/Abcam antibody MJF-R21 (Abcam, ab230261) (shown at different times of development). The three lower rows contain controls of LRRK2 (rat anti-LRRK2, 24D8), Fluobody (rat anti-GFP) and Rab10 (rabbit anti-Rab10) expression levels. (FIG. 2D) Based on the results of panels (FIGS. 2A-2C) the Nbs can be divided into 4 functional groups, with group 1: Nbs that inhibit both LRRK2 autophosphorylation and Rab10 phosphorylation in cells; group 2: Nbs that inhibit only Rab10 phosphorylation; group 3: Nbs that activate LRRK2 kinase activity; group 4: Nbs that have no consistent/clear effect on LRRK2 kinase activity.
To assess the influence of the Nbs on LRRK2 kinase activity we monitored two physiologically and disease relevant activities of LRRK2: phosphorylation of the endogenous substrate Rab10 at position T72 and LRRK2 autophosphorylation at position S1292 [25-30]. […] In our cellular assay we thus co-expressed LRRK2(G2019S), Rab29 and the different Nb-GFP fusions in HEK 293T cells (FIG. 2a-c).
HEK 293T cells were cultured in DMEM (supplemented with 10% Fetal Bovine Serum, […] L-Glutamine and 0.5% Pen/Strep). For the assay, the cells were seeded onto six-well plates and transfected at a confluency of 50-70% with the individual Nb-GFP expression constructs, SF-tagged LRRK2(G2019S) and FLAG-HA Rab29 using a self-made polyethylenimine (PEI)-based transfection reagent. After 48 hrs cells were lysed in lysis buffer [30 mM Tris-HCL (pH7.4), 150 mM NaCl, 0.5% Nonident-P40, complete protease inhibitor cocktail, phosphatase inhibitor cocktail II & III (all Sigma)]. Lysates were cleared by centrifugation at 10,000×g and adjusted to a protein concentration of 1 μg/μl in 1× Laemmli Buffer. Samples were subsequently subjected to SDS PAGE and Western Blot analysis to determine LRRK2 pS1292 and Rab10 T72 phosphorylation levels, as described below. Total LRRK2 and Rab10 levels were determined as a reference.
For western blot analysis, protein samples were separated by SDS-PAGE using NuPAGE 10% Bis-Tris gels (Invitrogen) and transferred onto PVDF membranes (Thermo Fisher). To allow simultaneous probing for LRRK2 on the one hand and Rab and the Nb-GFP fusions on the other hand, membranes were cut horizontally at the 140 kDa MW marker band. After blocking non-specific binding sites with 5% non-fat dry milk in TBST (1 h, RT) (25 mM Tris, pH 7.4, 150 mM NaCl, 0.1% Tween-20), membranes were incubated overnight at 4° C. with primary antibodies at dilutions specified below. Phospho-specific antibodies were diluted in TBST/5% BSA (Roth GmbH). Non-phospho-specific antibodies were diluted in TBST/5% non-fat dry milk powder (BioRad). Phospho-Rab10 levels were determined by the site-specific rabbit monoclonal antibody anti-pRAB10([…]) (Abcam, ab230261) and LRRK2 autophosphorylation was determined by the site-specific rabbit monoclonal antibody anti-pLRRK2(pS1292) (Abcam, ab203181), both at a dilution of 1:2,000. Total LRRK2 levels were determined by the in-house rat monoclonal antibody anti-pan-LRRK2 (clone 24D8; 1:10,000). Total Rab10 levels were determined by the rabbit monoclonal antibody anti-RAB10/ERP13424 (Abcam, ab181367) at a dilution of 1:5,000. Nb-GFP fusion proteins were detected using the rat monoclonal antibody anti-GFP (clone 3H9, ChromoTec) at a dilution of 1:2,000. For detection, goat anti-rat IgG or anti-rabbit IgG HRP-coupled secondary antibodies (Jackson ImmunoResearch) were used at a dilution of 1:15,000 in TBST/5% non-fat dry milk powder. […]

For the next series, the target named is T5, endogenous LRRK2 (Mus musculus, UniProt Q5S006).
T5 construct: endogenous in cells; host or cells: RAW264.7
The experiment in a line: Colocalization of GFP-Nbs with endogenous LRRK2 on zymosan-containing phagosomes in RAW264.7 cells. Type of series: cell-based. The conditions noted are these: RAW264.7 cells transfected with GFP-Nbs, zymosan 30 mins, fixed cells. The procedure:
RAW264.7 cells were transfected with GFP-fused Nbs and treated with Zymosan for 30 mins. Recruitment of LRRK2 and Nbs to the phagosomes was analyzed by immunofluorescence. FIG. 16A, images for Nb38, Nb22, Nb23, Nb40, No Nb, or Irrelevant (IRR) Nb treatments; FIG. 16B, images for Nb36, Nb42, Nb17, Nb39, Nb1, and Nb6 treatments. Scale bar=10 μm.
To test whether Nbs can trace and visualize endogenous LRRK2 in fixed cells, we generated green fluorescent protein (GFP)-Nb fusions (fluobodies) as described before. Recently, it was shown that LRRK2 is recruited to phagosomes upon induction of phagocytosis in immune cells. Therefore, RAW264.7 cells were transfected with these fluobodies and treated with killed yeast bioparticles “zymosan” to induce phagocytosis.
RAW264.7 cells (ATCC® SC-6003™) were transfected with peGFP-Nb constructs using JetOPTIMUS (Polyplus transfection) for 24 hrs and then stimulated with Zymosan particles (Sigma Aldrich) for 30 mins ([…]). Immunostaining for LRRK2 was performed as reported before. Briefly, cells fixed with 4% (w/v) paraformaldehyde for 30 min, followed by treatment with 100% EtOH at −20° C. Sampled were permeabilized with PBS/0.5% Triton X-100 and blocked with 3% BSA. Primary antibodies (rabbit anti-LRRK2, c41-2, Abcam and mouse anti-GFP, G6539, Sigma Aldrich) were diluted in PBS containing 3% BSA and 0.5% Triton X-100 and incubated overnight at 4° C. After three 5-min washes with PBS, secondary fluorescently labeled antibodies (anti-rabbit-Alexa fluor 568 and anti-mouse-Alexa fluor 488, Invitrogen) were added in a similar manner to primary antibodies and incubated for 1 hour at room temperature. Cells were washed twice with 1×PBS and mounted with Fluroshield antifade reagent with DAPI (SigmaAldrich). Images were acquired on Zeiss LSM800 confocal laser scanning microscope. Image analysis of z-scan was done using the Zeiss microscope software ZEN.

T4 sequence (Q5S007 whole entry R50H/G2019S/M2397T): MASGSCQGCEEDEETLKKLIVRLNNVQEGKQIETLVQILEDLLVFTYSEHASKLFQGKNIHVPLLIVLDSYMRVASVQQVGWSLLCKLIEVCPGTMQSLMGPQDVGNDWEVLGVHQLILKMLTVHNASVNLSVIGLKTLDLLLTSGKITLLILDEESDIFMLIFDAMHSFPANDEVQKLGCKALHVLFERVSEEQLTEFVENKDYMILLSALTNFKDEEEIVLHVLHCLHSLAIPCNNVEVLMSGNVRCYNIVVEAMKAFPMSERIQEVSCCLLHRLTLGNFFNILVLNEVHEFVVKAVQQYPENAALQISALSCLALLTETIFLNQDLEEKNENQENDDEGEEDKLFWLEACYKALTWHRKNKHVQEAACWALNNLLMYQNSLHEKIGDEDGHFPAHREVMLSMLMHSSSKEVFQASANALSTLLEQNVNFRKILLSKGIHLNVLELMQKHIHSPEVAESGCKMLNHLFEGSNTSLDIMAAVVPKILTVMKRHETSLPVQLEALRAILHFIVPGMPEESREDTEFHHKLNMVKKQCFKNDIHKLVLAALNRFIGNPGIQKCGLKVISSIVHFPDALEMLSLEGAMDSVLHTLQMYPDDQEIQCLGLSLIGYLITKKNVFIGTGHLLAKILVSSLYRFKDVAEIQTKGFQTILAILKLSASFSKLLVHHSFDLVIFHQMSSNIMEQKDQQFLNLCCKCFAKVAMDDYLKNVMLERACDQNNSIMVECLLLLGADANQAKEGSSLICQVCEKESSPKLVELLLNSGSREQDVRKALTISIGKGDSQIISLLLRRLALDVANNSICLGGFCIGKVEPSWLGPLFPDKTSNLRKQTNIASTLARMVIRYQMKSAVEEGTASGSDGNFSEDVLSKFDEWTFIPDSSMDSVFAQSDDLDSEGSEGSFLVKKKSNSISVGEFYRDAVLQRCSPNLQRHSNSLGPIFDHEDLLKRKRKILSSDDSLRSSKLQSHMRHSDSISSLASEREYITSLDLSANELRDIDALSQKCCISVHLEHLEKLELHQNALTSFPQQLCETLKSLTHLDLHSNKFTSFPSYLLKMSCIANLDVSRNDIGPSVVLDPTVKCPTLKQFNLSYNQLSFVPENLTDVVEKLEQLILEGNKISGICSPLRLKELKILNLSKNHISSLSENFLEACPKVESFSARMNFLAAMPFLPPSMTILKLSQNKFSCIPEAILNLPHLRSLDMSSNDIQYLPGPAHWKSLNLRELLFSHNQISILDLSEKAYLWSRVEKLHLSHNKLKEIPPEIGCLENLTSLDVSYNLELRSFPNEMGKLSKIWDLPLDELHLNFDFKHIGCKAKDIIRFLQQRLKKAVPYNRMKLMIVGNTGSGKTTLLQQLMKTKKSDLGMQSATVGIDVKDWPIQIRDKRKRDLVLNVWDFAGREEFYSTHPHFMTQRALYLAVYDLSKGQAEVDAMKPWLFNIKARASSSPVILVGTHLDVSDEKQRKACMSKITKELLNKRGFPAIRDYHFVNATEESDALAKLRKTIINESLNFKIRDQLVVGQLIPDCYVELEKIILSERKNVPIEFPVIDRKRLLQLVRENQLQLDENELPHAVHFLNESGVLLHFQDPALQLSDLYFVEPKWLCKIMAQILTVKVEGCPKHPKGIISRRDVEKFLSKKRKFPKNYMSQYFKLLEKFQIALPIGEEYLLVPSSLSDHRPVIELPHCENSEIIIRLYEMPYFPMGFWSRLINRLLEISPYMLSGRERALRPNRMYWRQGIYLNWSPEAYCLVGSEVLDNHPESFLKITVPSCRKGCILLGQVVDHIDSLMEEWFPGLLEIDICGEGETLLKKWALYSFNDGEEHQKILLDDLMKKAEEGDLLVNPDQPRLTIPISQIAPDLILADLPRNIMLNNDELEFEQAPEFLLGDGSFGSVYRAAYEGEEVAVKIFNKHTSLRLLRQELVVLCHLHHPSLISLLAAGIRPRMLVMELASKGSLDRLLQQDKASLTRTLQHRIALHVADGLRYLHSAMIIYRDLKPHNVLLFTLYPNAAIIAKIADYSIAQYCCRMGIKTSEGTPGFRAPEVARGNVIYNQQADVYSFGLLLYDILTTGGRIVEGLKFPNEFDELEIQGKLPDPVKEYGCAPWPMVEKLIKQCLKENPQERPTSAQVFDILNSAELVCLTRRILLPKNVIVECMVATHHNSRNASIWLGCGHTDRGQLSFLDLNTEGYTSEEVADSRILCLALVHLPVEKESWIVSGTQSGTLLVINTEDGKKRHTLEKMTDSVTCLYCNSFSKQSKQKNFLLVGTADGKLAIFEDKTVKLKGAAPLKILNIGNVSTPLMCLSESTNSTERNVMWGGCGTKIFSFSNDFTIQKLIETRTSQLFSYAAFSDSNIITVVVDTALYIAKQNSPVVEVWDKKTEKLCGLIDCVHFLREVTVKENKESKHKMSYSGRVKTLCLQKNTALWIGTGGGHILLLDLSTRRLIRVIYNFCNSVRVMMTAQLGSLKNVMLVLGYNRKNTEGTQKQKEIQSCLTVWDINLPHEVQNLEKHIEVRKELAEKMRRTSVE
T5 sequence (Q5S006 whole entry): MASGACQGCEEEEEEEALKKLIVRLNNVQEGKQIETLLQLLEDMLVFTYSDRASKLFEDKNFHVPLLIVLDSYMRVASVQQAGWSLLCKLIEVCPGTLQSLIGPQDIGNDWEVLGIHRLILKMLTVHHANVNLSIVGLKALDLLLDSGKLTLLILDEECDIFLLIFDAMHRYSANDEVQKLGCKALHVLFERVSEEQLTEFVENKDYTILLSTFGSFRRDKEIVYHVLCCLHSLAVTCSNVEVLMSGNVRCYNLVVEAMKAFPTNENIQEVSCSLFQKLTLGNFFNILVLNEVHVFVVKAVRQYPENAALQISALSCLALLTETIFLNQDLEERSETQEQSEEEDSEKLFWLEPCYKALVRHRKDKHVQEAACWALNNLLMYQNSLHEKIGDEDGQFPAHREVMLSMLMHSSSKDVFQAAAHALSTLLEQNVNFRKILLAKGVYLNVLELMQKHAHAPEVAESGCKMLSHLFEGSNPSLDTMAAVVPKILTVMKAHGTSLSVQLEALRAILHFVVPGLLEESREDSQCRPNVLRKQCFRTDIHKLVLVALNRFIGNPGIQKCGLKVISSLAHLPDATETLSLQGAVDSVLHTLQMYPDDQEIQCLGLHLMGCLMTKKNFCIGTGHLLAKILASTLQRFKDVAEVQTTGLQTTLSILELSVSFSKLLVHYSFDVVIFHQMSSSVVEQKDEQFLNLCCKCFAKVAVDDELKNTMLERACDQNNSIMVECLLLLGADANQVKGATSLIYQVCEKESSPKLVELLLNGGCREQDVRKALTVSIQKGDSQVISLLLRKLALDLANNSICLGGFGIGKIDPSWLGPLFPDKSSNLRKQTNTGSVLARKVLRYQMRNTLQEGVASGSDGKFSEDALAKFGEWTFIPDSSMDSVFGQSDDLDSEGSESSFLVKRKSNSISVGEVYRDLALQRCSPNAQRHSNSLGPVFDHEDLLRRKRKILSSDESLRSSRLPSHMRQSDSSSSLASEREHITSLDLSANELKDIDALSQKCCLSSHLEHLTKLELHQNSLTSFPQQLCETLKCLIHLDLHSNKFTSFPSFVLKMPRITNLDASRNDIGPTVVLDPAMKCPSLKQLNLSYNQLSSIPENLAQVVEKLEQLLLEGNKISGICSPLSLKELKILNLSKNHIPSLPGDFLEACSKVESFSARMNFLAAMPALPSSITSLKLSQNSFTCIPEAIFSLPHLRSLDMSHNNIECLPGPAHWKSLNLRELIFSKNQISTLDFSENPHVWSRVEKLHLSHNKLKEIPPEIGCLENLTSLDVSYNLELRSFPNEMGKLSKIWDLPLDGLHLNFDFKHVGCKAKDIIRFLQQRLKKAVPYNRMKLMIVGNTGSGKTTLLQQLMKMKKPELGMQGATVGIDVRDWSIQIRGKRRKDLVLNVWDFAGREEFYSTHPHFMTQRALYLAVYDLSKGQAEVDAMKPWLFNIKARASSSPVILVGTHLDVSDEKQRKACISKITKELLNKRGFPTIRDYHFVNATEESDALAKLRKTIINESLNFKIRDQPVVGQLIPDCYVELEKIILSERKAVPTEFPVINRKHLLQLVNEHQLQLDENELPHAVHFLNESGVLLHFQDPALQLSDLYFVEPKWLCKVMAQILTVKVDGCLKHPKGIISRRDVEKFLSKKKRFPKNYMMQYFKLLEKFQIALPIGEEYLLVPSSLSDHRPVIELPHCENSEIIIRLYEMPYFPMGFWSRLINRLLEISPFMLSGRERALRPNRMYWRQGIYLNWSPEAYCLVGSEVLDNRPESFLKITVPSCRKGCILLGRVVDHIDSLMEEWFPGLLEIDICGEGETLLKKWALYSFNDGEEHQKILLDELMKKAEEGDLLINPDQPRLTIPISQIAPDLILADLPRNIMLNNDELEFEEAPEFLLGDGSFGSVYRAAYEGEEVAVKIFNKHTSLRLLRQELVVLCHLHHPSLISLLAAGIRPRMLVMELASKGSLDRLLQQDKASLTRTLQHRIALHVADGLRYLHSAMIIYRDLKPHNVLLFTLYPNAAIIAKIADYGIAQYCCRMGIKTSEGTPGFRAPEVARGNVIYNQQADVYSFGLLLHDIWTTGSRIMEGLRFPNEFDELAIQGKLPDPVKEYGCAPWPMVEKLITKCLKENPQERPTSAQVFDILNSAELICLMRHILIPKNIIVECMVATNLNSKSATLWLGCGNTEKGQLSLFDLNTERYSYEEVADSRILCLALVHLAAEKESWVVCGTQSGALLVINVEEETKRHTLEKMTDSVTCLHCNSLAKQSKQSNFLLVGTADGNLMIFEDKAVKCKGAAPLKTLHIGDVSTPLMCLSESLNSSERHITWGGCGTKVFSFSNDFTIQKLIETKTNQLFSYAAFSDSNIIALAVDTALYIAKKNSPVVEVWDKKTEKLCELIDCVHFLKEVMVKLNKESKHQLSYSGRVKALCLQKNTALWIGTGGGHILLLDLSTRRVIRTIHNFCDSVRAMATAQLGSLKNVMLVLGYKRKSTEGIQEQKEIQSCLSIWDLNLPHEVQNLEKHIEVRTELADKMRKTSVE

B1: Nb41 (CA14136) (VHH)
VHH: QVQLVESGGGLVQAGGSLRLSCEASVRTFSFYSMGWFRQAPGKEREFVAAIRWTAGSTSYADIVKGRFTISRDNGKNTVVLQMNSLEPEDTGVYYCAAQRGYLVEAASREYDYWGQGTQVTVSS
Regarding B1, the binding result in series [1], in series [2] and in series [3] was “no binding (tested: not given)” in each case.

B2: Nb10 (CA13599) (VHH)
VHH: QVQLVESGGGLVQPGGSLRLSCAASGSIFSIYAMGWYRQAPGKQRELVAAITSGGDTNYADSVKGRFTISRDNAKNTVYLQMNSLKPEDTAVYYCNADHTPAGTFQTFDYWGQGTQVTVSS
With B2, the binding result in series [1], in series [2] and in series [3] was “no binding (tested: not given)” in each case.

B3: Nb28 (CA13617) (VHH)
VHH: QVQLVESGGGLVQAGGSLRLSCAASGIIFHWYDMDWYRQAPGKQRELVATITTGGRADYADFVKGRFSISRDNAKTTVYLQMNSLKPEDTAVYYCSFQDHVLRRWGQGTQVTVSS
For the molecule B3, the binding result in series [1], in series [2] and in series [3] was “no binding (tested: not given)” throughout.

B4: Nb36: LRRK2-specific Nanobody, SEQ ID NO: 7 (protein)
VHH: MAQVQLVESGGGLVQPGGSLRLSCAASGSIRSITTSAWFRQPPGKQRELVAGISSGTSTNYADSVKGRFTISRDNAKNTVYLQMNSLKPEDTAVYYCHVWISGTWYSGQGTQVTVSS
modifications: Nanobody CA14130
Consider B4, for which, in the series with LRRK2(G2019S) (HEK 293T cells co-expressing LRRK2(G2019S), Rab29 and Nb-GFP), the “LRRK2 autophosphorylation at position S1292” value is on record as “inhibiting S1292 phosphorylation at a lesser extent”. For the same molecule, in the series with LRRK2(G2019S) (HEK 293T cells co-expressing LRRK2(G2019S), Rab29 and Nb-GFP, Western blot), the “influence on LRRK2 kinase activity compared to the controls” value is reported as “strongly decreased LRRK2 autophosphorylation and/or Rab10 phosphorylation”. Further, the “Functional Group (see FIG. 2d)” value with LRRK2(G2019S) (classification by effect on in cellulo LRRK2(G2019S) kinase activity) is on record as “Group 2”. Also, the “Rab10 phosphorylation at position T72” value with LRRK2(G2019S) (endogenous Rab10, HEK 293T cells co-expressing LRRK2(G2019S), Rab29 and Nb-GFP) is “inhibit Rab10 phosphorylation”. Also, the “colocalization with endogenous LRRK2 on phagosomes” value in the series with endogenous LRRK2 is “did not colocalize with endogenous LRRK2”.

B5: Nb13 (CA13602) (VHH)
VHH: QVQLVESGGGLVQPGGSLRLSCAASGSGFSIYAMGWARQAPGRQRELVAAITSGGSTNYADSVKGRFTISRDNAKNTVYLQMNSLKPEDTAVYYCNADITVVAGSTYDYWGQGTQVTVSS
With B5, the binding result in series [1], in series [2] and in series [3] was “no binding (tested: not given)” in each case.
